Assay results taken from the RNAGym collection of RNA variant scans (doi:10.1093/molbev/msab373).

B1: Azoarcus group I ribozyme (parent)
chain: GUGCCUUGCGCCGGGAAACCACGCAAGGGAUGGUGUCAAAUUCGGCGAAACCUAAGCGCCCGCCCGGGCGUAUGGCAACGCCGAGCCAAGCUUCGGCGCCUGCGCCGAUGAAGGUGUAGAGACUAGACGGCACCCACCUAAGGCAAACGCUAUGGUGAAGGCAUAGUCCAGGGAGUGGCGAAAGUCACACAAACCGG

Variants of: B1
Assay: reverse-splicing fitness (ratio to wild type); higher = more active; in vitro selection; Mg2+ level not given
Method in brief: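 An in vitro group I ribozyme library with randomized positions was T7-transcribed and gel-purified. In triplicate, 10 pmol RNA in EPPS pH 7.5 was reacted with 50 pmoles of a 30-nt RNA substrate for 1 h at 37 °C across several added MgCl2 levels (1–48 mM), then stopped with EDTA. Products were reverse transcribed from a substrate-complementary primer, PCR-amplified and sequenced (HiSeq 4000). Fitness is a variant's read proportion after selection over that before, normalised to wild type.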

For C82A A120C A145U C150G C169U U176C, which reverse-splicing fitness is on record?
The reverse-splicing fitness was 0.00999.

With C82A A120C A145C C169G U176G as the variant, how does the reverse-splicing fitness read?
Its reverse-splicing fitness is 0.00536.

Which reverse-splicing fitness does the source give for C82A A120C A145C C169G U176C here?
Its reverse-splicing fitness is 0.0239.

Which reverse-splicing fitness does the source give for C82A A120C A145C C169G U176A here?
Its reverse-splicing fitness is 0.031.

Which reverse-splicing fitness does the source give for C82A A120C A145G C150A C169U U176A here?
Its reverse-splicing fitness is 0.0177.

Which reverse-splicing fitness does the source give for C82A A120C A145G C150A C169U U176G here?
The reverse-splicing fitness was 0.00765.

For C82A A120C A145G C150A C169U U176C, which reverse-splicing fitness is on record?
Its reverse-splicing fitness is 0.0163.

Which reverse-splicing fitness does the source give for C82A A120C A145G C150U C169U U176G here?
Its reverse-splicing fitness is 0.00621.

Which reverse-splicing fitness does the source give for C82A A120C A145G C150U C169U U176C here?
The reverse-splicing fitness was 0.0136.

With C82A A120C A145G C150U C169U U176A as the variant, how does the reverse-splicing fitness read?
The reverse-splicing fitness was 0.0157.

For C82A A111U A145U C150G C169U U176C, which reverse-splicing fitness is on record?
The reverse-splicing fitness was 0.0122.

With C82A A111U A145U C150G C169U U176G as the variant, how does the reverse-splicing fitness read?
Its reverse-splicing fitness is 0.00727.

For C82A A111U A145U C150G C169U U176A, which reverse-splicing fitness is on record?
Its reverse-splicing fitness is 0.00775.

Which reverse-splicing fitness does the source give for C82A A120C A145U C150G C169A U176G here?
Its reverse-splicing fitness is 0.00455.

Which reverse-splicing fitness does the source give for C82A A120C A145U C150G C169A U176A here?
Its reverse-splicing fitness is 0.0116.

Which reverse-splicing fitness does the source give for C82A A120C A145U C150G C169A U176C here?
The reverse-splicing fitness was 0.0131.

Which reverse-splicing fitness does the source give for C82A A120C A145U C150U C169U U176A here?
Its reverse-splicing fitness is 0.0145.

Which reverse-splicing fitness does the source give for C82A A120C A145G U176G here?
Its reverse-splicing fitness is 0.00861.

Which reverse-splicing fitness does the source give for C82A A120C A145G U176A here?
Its reverse-splicing fitness is 0.0426.

Which reverse-splicing fitness does the source give for C82A A120C A145G U176C here?
Its reverse-splicing fitness is 0.0683.

For C82A A111U C150G U176A, which reverse-splicing fitness is on record?
Its reverse-splicing fitness is 0.00718.

For C82A A111U C150G U176C, which reverse-splicing fitness is on record?
Its reverse-splicing fitness is 0.015.

With C82A A111U C150G U176G as the variant, how does the reverse-splicing fitness read?
Its reverse-splicing fitness is 0.00369.

For C82A A111U C150U U176G, which reverse-splicing fitness is on record?
The reverse-splicing fitness was 0.0161.

Which reverse-splicing fitness does the source give for C82A A111U C150U U176C here?
The reverse-splicing fitness was 0.0751.

For C82A A111U C150U U176A, which reverse-splicing fitness is on record?
Its reverse-splicing fitness is 0.0473.

With C82A A120C A145G C150G C169G U176A as the variant, how does the reverse-splicing fitness read?
The reverse-splicing fitness was 0.013.

Which reverse-splicing fitness does the source give for C82A A120C A145G C150G C169G U176C here?
The reverse-splicing fitness was 0.0127.

Which reverse-splicing fitness does the source give for C82A A120C A145G C150G C169G U176G here?
Its reverse-splicing fitness is 0.00719.

Which reverse-splicing fitness does the source give for C82A A120C A145G C150A U176A here?
Its reverse-splicing fitness is 0.0137.

With C82A A120C A145G C150A U176G as the variant, how does the reverse-splicing fitness read?
Its reverse-splicing fitness is 0.00982.

With C82A A120C A145G C150A U176C as the variant, how does the reverse-splicing fitness read?
The reverse-splicing fitness was 0.03.

For C82A A111U A145U, which reverse-splicing fitness is on record?
Its reverse-splicing fitness is 0.289.

Which reverse-splicing fitness does the source give for C82A A120C A145C C150G C169G U176A here?
The reverse-splicing fitness was 0.00969.

With C82A A120C A145C C150G C169G U176C as the variant, how does the reverse-splicing fitness read?
Its reverse-splicing fitness is 0.00971.

For C82A A120C A145C C150G C169G U176G, which reverse-splicing fitness is on record?
The reverse-splicing fitness was 0.00575.

With C82A A120C A145G C169U U176C as the variant, how does the reverse-splicing fitness read?
Its reverse-splicing fitness is 0.0162.

Which reverse-splicing fitness does the source give for C82A A120C A145G C169U U176G here?
Its reverse-splicing fitness is 0.00469.

With C82A A120C A145G C169U U176A as the variant, how does the reverse-splicing fitness read?
The reverse-splicing fitness was 0.0173.

Which reverse-splicing fitness does the source give for C82A A111U C169G U176C here?
Its reverse-splicing fitness is 0.0258.

With C82A A111U C169G U176A as the variant, how does the reverse-splicing fitness read?
Its reverse-splicing fitness is 0.0162.

For C82A A111U C169G U176G, which reverse-splicing fitness is on record?
Its reverse-splicing fitness is 0.00658.

Which reverse-splicing fitness does the source give for C82A A120C A145C C150A here?
The reverse-splicing fitness was 0.0144.

For C82A A120C A145C C150U, which reverse-splicing fitness is on record?
Its reverse-splicing fitness is 0.035.

With C82A A120C A145C C150G as the variant, how does the reverse-splicing fitness read?
The reverse-splicing fitness was 0.0192.

With C82A A111U U176A as the variant, how does the reverse-splicing fitness read?
Its reverse-splicing fitness is 0.0911.

With C82A A111U U176G as the variant, how does the reverse-splicing fitness read?
Its reverse-splicing fitness is 0.026.

For C82A A111U U176C, which reverse-splicing fitness is on record?
The reverse-splicing fitness was 0.158.

For C82A A120C A145G C150G U176G, which reverse-splicing fitness is on record?
Its reverse-splicing fitness is 0.00716.

For C82A A120C A145G C150G U176A, which reverse-splicing fitness is on record?
Its reverse-splicing fitness is 0.00881.

For C82A A120C A145G C150G U176C, which reverse-splicing fitness is on record?
The reverse-splicing fitness was 0.0148.

Which reverse-splicing fitness does the source give for C82A A111U A145U C150G C169A U176A here?
The reverse-splicing fitness was 0.0106.

Which reverse-splicing fitness does the source give for C82A A111U A145U C150G C169A U176G here?
Its reverse-splicing fitness is 0.00651.

With C82A A111U A145U C150G C169A U176C as the variant, how does the reverse-splicing fitness read?
Its reverse-splicing fitness is 0.0109.

With C82A A111U A145G C150U U176C as the variant, how does the reverse-splicing fitness read?
The reverse-splicing fitness was 0.115.

With C82A A111U A145G C150U U176A as the variant, how does the reverse-splicing fitness read?
Its reverse-splicing fitness is 0.0694.

For C82A A111U A145G C150U U176G, which reverse-splicing fitness is on record?
Its reverse-splicing fitness is 0.0191.

Which reverse-splicing fitness does the source give for C82A A111U A145G C150U C169U U176G here?
The reverse-splicing fitness was 0.00683.

Which reverse-splicing fitness does the source give for C82A A111U A145G C150U C169U U176C here?
Its reverse-splicing fitness is 0.0148.

Which reverse-splicing fitness does the source give for C82A A111U A145G C150U C169U U176A here?
The reverse-splicing fitness was 0.0147.

For C82A A120C A145G C150U C169A U176A, which reverse-splicing fitness is on record?
Its reverse-splicing fitness is 0.0169.

With C82A A120C A145G C150U C169A U176G as the variant, how does the reverse-splicing fitness read?
The reverse-splicing fitness was 0.00774.

Which reverse-splicing fitness does the source give for C82A A120C A145G C150U C169A U176C here?
The reverse-splicing fitness was 0.0184.

For C82A A111U A145U C169G, which reverse-splicing fitness is on record?
Its reverse-splicing fitness is 0.00938.

For C82A A111U A145U C169U, which reverse-splicing fitness is on record?
The reverse-splicing fitness was 0.0125.

For C82A A111U A145U C169A, which reverse-splicing fitness is on record?
Its reverse-splicing fitness is 0.00911.

With C82A A111U A145U C150A C169U U176A as the variant, how does the reverse-splicing fitness read?
Its reverse-splicing fitness is 0.0147.

For C82A A111U A145U C150A C169U U176G, which reverse-splicing fitness is on record?
The reverse-splicing fitness was 0.00771.

Which reverse-splicing fitness does the source give for C82A A111U A145U C150A C169U U176C here?
Its reverse-splicing fitness is 0.0127.

For C82A A120C A145G C150A C169G U176G, which reverse-splicing fitness is on record?
The reverse-splicing fitness was 0.00638.

Which reverse-splicing fitness does the source give for C82A A120C A145G C150A C169G U176A here?
The reverse-splicing fitness was 0.0191.

With C82A A120C A145G C150A C169G U176C as the variant, how does the reverse-splicing fitness read?
The reverse-splicing fitness was 0.0333.

Which reverse-splicing fitness does the source give for C82A A120C A145U C150A C169U U176A here?
The reverse-splicing fitness was 0.0151.

Which reverse-splicing fitness does the source give for C82A A120C A145U C150A C169U U176G here?
The reverse-splicing fitness was 0.00487.

For C82A A120C A145U C150A C169U U176C, which reverse-splicing fitness is on record?
The reverse-splicing fitness was 0.0126.

Which reverse-splicing fitness does the source give for C82A A120C A145U C150A U176C here?
Its reverse-splicing fitness is 0.0233.

With C82A A120C A145U C150A U176A as the variant, how does the reverse-splicing fitness read?
Its reverse-splicing fitness is 0.0143.

For C82A A120C A145U C150A U176G, which reverse-splicing fitness is on record?
The reverse-splicing fitness was 0.00574.

With C82A A120C A145C C150G C169G as the variant, how does the reverse-splicing fitness read?
Its reverse-splicing fitness is 0.00784.

With C82A A120C A145C C150G C169U as the variant, how does the reverse-splicing fitness read?
The reverse-splicing fitness was 0.00982.

Which reverse-splicing fitness does the source give for C82A A120C A145C C150G C169A here?
Its reverse-splicing fitness is 0.00891.

For C82A A120C A145C C150A C169A U176G, which reverse-splicing fitness is on record?
Its reverse-splicing fitness is 0.00574.

Which reverse-splicing fitness does the source give for C82A A120C A145C C150A C169A U176A here?
Its reverse-splicing fitness is 0.0195.

For C82A A120C A145C C150A C169A U176C, which reverse-splicing fitness is on record?
The reverse-splicing fitness was 0.0102.
